# From patent US5451522A, “Genes encoding and method of expressing an enzyme: phthalyl amidase” (priority 1994, dated 1995)
# B1: phthalyl amidase (mature enzyme, purified from Xanthobacter agilis) (enzyme)
# chain: QAPSVHQHVAFTEEIGDLPDGSSYMIRVPENWNGVLIRDLDLVSGTSNSNAARYETMLKEGFAVAGTARHPLRQWQYDPAHEIENLNHVLDTFEENYGSPERVIQYGCSGGAHVSLAVAEDFSDRVDGSVALAAHTPVWIMNSFLDGWFSLQSLIGEYYVEAGHGPLSDLAITKLPNDGSSNSSGHGMEGDLPAAWRNAFTAANATPEGRARMALAFALGQWSPWLADNTPQPDLDDPEAIADSVYESAMRLAGSPGGEARIMFENAARGQQLSWNDDIDYADFWENSNPAMKSAVQELYDTAGLDLQSDIETVNSQPRIEASQYALDYWNTPGRNVIGDPEVPVLRLHMIGDYQIPYSLVQGYSDLISENNNDDLYRTAFVQSTGHCNFTAAESSAAIEVMMQRLDTGEWPSTEPDDLNAIAEASNTGTEARFMALDGWEIPEYNRTWKPE
# modifications: N-terminus blocked (attempts to sequence the N-terminus of the purified enzyme failed)
# B2: phthalyl amidase: enzyme from Xanthobacter agilis that removes the phthalyl moiety from phthalyl-containing amides (protein)
# chain: B1 chain
# Legend:
# phthalyl amidase [1] = molecular target: T1, phthalyl amidase (Xanthobacter agilis, UniProt P0C2Y0); experiment: Chiral and additional substrate selectivity of phthalyl amidase; format: biochemical; settings: Table 13; for Relative Activity: III = 100, 0.009 mg (0.6 units) enzyme, 2.5 μmol substrate, buffer A, 30° C.
# T1 construct: 42-aa signal peptide removed
# Protocol: Several additional substrates were tested in a total volume of 1 ml. […] Reactions were stopped by the addition of methanol, and phthalic acid formation was monitored by HPLC.
# Xanthobacter agilis = experiment: Induction of phthalyl amidase in Xanthobacter agilis cultures; format: cell-based; settings: for effect on wet weight cell mass (in words): Table 1 summary; for Total units/mg protein: cell-free lysate, chromogenic substrate II
# Protocol: Three compounds at different concentrations were added to aerated cultures of the organism growing at 30° C. in Bac MI medium. The compounds tested were phthalate (PAA), phthalyl glycine (PAG), and PMBL. Cells of Xanthobacter agilis were grown with aeration for 24 hours. This vegetative culture was used to inoculate Bac MI medium (50 ml) containing different concentrations of the compounds to be tested. After 48 hours growth under standard conditions, cells were harvested by centrifugation and wet weight of the cells was determined. Crude cell extracts were prepared by lysozyme treatment of the cells as in Example 1. Suspensions were briefly sonicated to break up the viscous suspension. A cell-free supernatant was obtained by centrifugation of the suspension at 14,000 rpm for 15 minutes.
# Enzyme activity in cell-free lysates was determined by monitoring conversion of the chromogenic substrate 4-(2'-carboxy-N-benzoyl)amino-2-carboxy-nitrobenzene (II) to 2-nitro-5-amino benzoic acid and phthalic acid, a reaction catalyzed by phthalyl amidase as shown below: [drawing 4]
# The assay reaction mixture (1 ml) consisted of 0.3 μmol of the chromogenic substrate (II) and 0.001-0.5 μg of enzyme preparation in 50 mM potassium phosphate buffer, pH 8.0 (buffer A). The enzymatic reaction was conducted at 30° C. for 10 minutes and the appearance of product was monitored at 380 nm (or 430 nm). The amount of substrate hydrolyzed was calculated from a standard curve of the amine product.
# [2] = molecular target: phthalyl-L-Asp-L-Phe-OMe (compound XIV)
# phthalyl amidase [3] = molecular target: T2, phthalyl amidase (Xanthobacter agilis, UniProt P0C2Y0); experiment: Optimum salt concentration; format: biochemical; settings: 32° C., substrate III
# T2 construct: 42-aa signal peptide removed
# T2 sequence (P0C2Y0 whole entry, looked up): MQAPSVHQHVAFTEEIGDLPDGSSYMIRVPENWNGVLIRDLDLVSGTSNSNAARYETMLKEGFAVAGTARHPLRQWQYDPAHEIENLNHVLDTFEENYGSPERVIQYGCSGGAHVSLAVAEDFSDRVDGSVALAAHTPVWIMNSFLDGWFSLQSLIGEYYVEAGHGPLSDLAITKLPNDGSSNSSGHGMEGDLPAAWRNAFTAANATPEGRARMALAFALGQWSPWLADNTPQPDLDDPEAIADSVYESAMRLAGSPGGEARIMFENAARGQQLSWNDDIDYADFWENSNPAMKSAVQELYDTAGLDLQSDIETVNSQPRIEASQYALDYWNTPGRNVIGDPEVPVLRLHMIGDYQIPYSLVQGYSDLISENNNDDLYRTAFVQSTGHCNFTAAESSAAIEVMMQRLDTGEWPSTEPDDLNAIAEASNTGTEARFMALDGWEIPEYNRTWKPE
# Protocol: Test reactions were carried out similar to Example 6 except that buffer concentrations ranging from 10 to 200 mM at 32° C. were examined. All other conditions and analyses were the same.
# phthalyl amidase [4] = molecular target: T2, phthalyl amidase; experiment: Effect of pH on phthalyl amidase activity (substrate III, HPLC); format: biochemical; settings: 50 mM potassium phosphate, 32° C.
# Protocol: The effect of pH on the reaction rate of the analytical scale purified enzyme was determined using phthalamido carbacephem (III) as substrate. [drawing 5]
# A typical reaction mixture consisted of 1 ml total volume and contained 0.1 mM III, 0.1 μM phthalyl amidase in 50 mM potassium phosphate buffer (pH 5.5-9.0) at 32° C. for 20 minutes. The reactions were stopped by the addition of 1 ml methanol. After removal of precipitate by centrifugation, an aliquot of the supernatant fraction (typically 30 μ) was monitored for the beta-lactam nucleus and phthalic acid by HPLC using a Zorbax C8 column (0.46×15 cm; MacMod Analytical Inc., Chadds Ford, Pa.). The two reaction products were eluted by a mobile phase constructed as continuous mixed gradients from (a) 1% ACN (acetonitrile)/0.2% TFA (trifluoroacetic acid) and (b) 80% ACN/0.2% TFA as follows: 1) 0% (b), 3 min; 2) 0-50% (b), 0.5 min; 3) 50-100% (b), 3 min; 4) 100% (b), 2.5 min; 5) 100-0% (b), 0.1 min; and 6) 0% (b), 5 min. At a flow rate of 1.5 ml/min, retention times of the beta-lactam nucleus and phthalic acid, as measured at 254 nm, were 2.3 and 7.2 min, respectively.
# phthalyl amidase [5] = molecular target: T2, phthalyl amidase; experiment: Optimum reaction temperature; format: biochemical; settings: substrate III, 50 mM potassium phosphate, pH 8.2
# Protocol: Test reactions were carried out similar to Example 5 except that all incubations were performed in 50 mM potassium phosphate buffer at pH 8.2. Solutions of the substrate were pre-incubated for 5 minutes at temperatures between 2° and 60° C. The enzymatic reaction was initiated by the addition of phthalyl amidase and stopped by the addition of 1 ml methanol. Specific activity of the enzyme was determined by monitoring the hydrolysis of III by HPLC as in Example 5.
# phthalyl amidase [6] = molecular target: T2, phthalyl amidase; experiment: Stability of phthalyl amidase (ionic strength, pH, temperature); format: physicochemical
# Protocol: The stability of phthalyl amidase at pH values ranging from 6-9 was determined as described in Example 5 at 30° C. in both 20 and 200 mM potassium phosphate buffer. […] In 200 mM buffer, the enzyme retained at least 80% of its activity for 100 hours irrespective of the pH of the incubating medium.
# The phthalyl amidase enzyme was also tested for stability at varying temperatures. The enzyme was incubated at pH 8.2 in the temperature range of 4°-50° C. for 48 hours in 50 and 200 mM phosphate buffer. […] In 200 mM buffer, 80% of the enzyme activity was retained in temperatures up to 35° C. and 30% of the enzyme activity was retained after 48 hours incubation at 40° C.
molecule,measurement,setting,value
O=C(O)c1ccccc1C(=O)Nc1ccccc1 [Compound XXXI],substrate selectivity (in words),phthalyl amidase [1],twice
same,Relative Activity,phthalyl amidase [1],200
O=C(O)c1ccccc1C(=O)N[C@H](C(=O)O)c1ccccc1 [Compound XXX],substrate selectivity (in words),phthalyl amidase [1],poor substrates
same,Relative Activity,phthalyl amidase [1],1.3
same,substrate selectivity (in words),phthalyl amidase [1]; listed as L isomer,extremely poor substrate
"O=C(O)CNC(=O)c1ccccc1C(=O)O [PAG, phthalyl glycine]",effect on wet weight cell mass (in words),Xanthobacter agilis,increased
same,Units/g cells,Xanthobacter agilis; inducer addition 1 mg/ml,1.04 Units/g cells
same,Total units/mg protein,Xanthobacter agilis; inducer addition 1 mg/ml,0.35 µmol/min/mg
same,Units/g cells,Xanthobacter agilis; inducer addition 5 mg/ml,9.4 Units/g cells
same,Cell weight,"Xanthobacter agilis; inducer addition 5 mg/ml, 48 hours growth in Bac MI medium",0.5 g/50 ml
same,Total units/mg protein,Xanthobacter agilis; inducer addition 5 mg/ml,4.4 µmol/min/mg
O=C(O)CN1C(=O)C(NC(=O)c2ccccc2C(=O)O)C1CCc1ccco1 (centres unmarked) [PMBL],effect on wet weight cell mass (in words),Xanthobacter agilis,no effect
O=C(Nc1ccccc1)c1ccccc1S(=O)(=O)O [XXXII],substrate selectivity (in words),phthalyl amidase [1],poor substrates
same,Relative Activity,phthalyl amidase [1],0.0
B1,Relative Activity (hydrolysis of the substrate by HPLC) (relative activity (compound III = 100.0)),[2],118
B2,Specific Activity,phthalyl amidase [3]; K Phosphate buffer 10 mM,148 μmol/min/μmol enzyme
same,Specific Activity,phthalyl amidase [3]; K Phosphate buffer 50 mM,300 μmol/min/μmol enzyme
same,Specific Activity,phthalyl amidase [3]; K Phosphate buffer 100 mM,350 μmol/min/μmol enzyme
same,Specific Activity,phthalyl amidase [3]; K Phosphate buffer 200 mM,360 μmol/min/μmol enzyme
same,Specific Activity,phthalyl amidase [3]; NH4 Acetate buffer 10 mM,25 μmol/min/μmol enzyme
same,Specific Activity,phthalyl amidase [3]; NH4 Acetate buffer 50 mM,50 μmol/min/μmol enzyme
same,Specific Activity,phthalyl amidase [3]; NH4 Acetate buffer 100 mM,75 μmol/min/μmol enzyme
same,Specific Activity,phthalyl amidase [3]; NH4 Acetate buffer 200 mM,100 μmol/min/μmol enzyme
same,Specific Activity,phthalyl amidase [3]; Tris-HCl buffer 10 mM,73 μmol/min/μmol enzyme
same,Specific Activity,phthalyl amidase [3]; Tris-HCl buffer 50 mM,230 μmol/min/μmol enzyme
same,Specific Activity,phthalyl amidase [3]; Tris-HCl buffer 100 mM,275 μmol/min/μmol enzyme
same,Specific Activity,phthalyl amidase [3]; Tris-HCl buffer 200 mM,300 μmol/min/μmol enzyme
same,Specific Activity,"phthalyl amidase [4]; pH 7.0, substrate III 0.1 mM",125.4 μmol/min/μmol enzyme
same,Specific Activity,"phthalyl amidase [4]; pH 7.2, substrate III 0.1 mM",130.4 μmol/min/μmol enzyme
same,Specific Activity,"phthalyl amidase [4]; pH 7.4, substrate III 0.1 mM",155.2 μmol/min/μmol enzyme
same,Specific Activity,"phthalyl amidase [4]; pH 7.6, substrate III 0.1 mM",172.5 μmol/min/μmol enzyme
same,Specific Activity,"phthalyl amidase [4]; pH 7.8, substrate III 0.1 mM",184.2 μmol/min/μmol enzyme
same,Specific Activity,"phthalyl amidase [4]; pH 8.0, substrate III 0.1 mM",195.3 μmol/min/μmol enzyme
same,Specific Activity,"phthalyl amidase [4]; pH 8.2, substrate III 0.1 mM",201.2 μmol/min/μmol enzyme
same,Specific Activity,"phthalyl amidase [4]; pH 8.4, substrate III 0.1 mM",208.0 μmol/min/μmol enzyme
same,Specific Activity,"phthalyl amidase [4]; pH 8.6, substrate III 0.1 mM",181.7 μmol/min/μmol enzyme
same,Specific Activity,"phthalyl amidase [4]; pH 8.8, substrate III 0.1 mM",185.1 μmol/min/μmol enzyme
same,Specific Activity,"phthalyl amidase [4]; pH 9.0, substrate III 0.1 mM",33.1 μmol/min/μmol enzyme
same,enzyme activity below 10° C. and above 50° C. (in words),phthalyl amidase [5],Little enzyme activity
same,temperature of maximum reaction rate,phthalyl amidase [5],34 °C
same,Optimum ionic strength for stability,phthalyl amidase [6],≥ 200 mM
same,optimum stability pH,phthalyl amidase [6],8.0±0.4
same,pH range in which the enzyme is stable,phthalyl amidase [6],6-9
same,time within which all enzyme activity was lost,"phthalyl amidase [6]; 20 mM potassium phosphate buffer, any pH 6-9, 30° C.",≤ 2 h
same,time within which all enzyme activity was lost,"phthalyl amidase [6]; 50 mM phosphate buffer, pH 8.2, incubation temperature above 40° C.",≤ 48 h
same,enzyme activity retained,"phthalyl amidase [6]; 50 mM phosphate buffer, pH 8.2, temperatures below 25° C., 48 hours",90%
same,enzyme activity retained,"phthalyl amidase [6]; 200 mM phosphate buffer, pH 8.2, 40° C., 48 hours",30%
same,enzyme activity retained,"phthalyl amidase [6]; 200 mM potassium phosphate buffer, pH 6-9, 30° C., 100 hours",at least 80%
same,temperature up to which good activity is retained,phthalyl amidase [6]; high salt (200 mM),up to 40 °C
same,temperature up to which good activity is retained,phthalyl amidase [6]; low salt (50 mM),up to 30 °C
